The target of experiment [1] is monkey GPC3 on HEK293T-monkey GPC3 cells (monkey). Briefly: FACS on HEK293T-monkey GPC3 cells.
Experiment [2] concerns the target monkey GPC3-His protein (monkey). Briefly: ELISA, monkey GPC3-His coated; antibody 13.33 nM.
For experiment [3] the target is unchanged. Briefly: ELISA, monkey GPC3-His coated; antibody 0.004 nM.
For experiment [4] the target is unchanged. Briefly: ELISA, monkey GPC3-His coated; antibody 0.02 nM.
For experiment [5] the target is unchanged. Briefly: ELISA, monkey GPC3-His coated; antibody 66.66 nM.
The target is the same in experiment [6]. Briefly: ELISA, monkey GPC3-His coated; antibody 0.0008 nM.
Experiment [7] shares this target. Kind of experiment: ELISA, monkey GPC3-His coated; antibody 0.53 nM.
For experiment [8] the target is unchanged. Kind of experiment: ELISA, monkey GPC3-His coated; antibody 2.67 nM.
Experiment [9] has the same target. Briefly: ELISA, monkey GPC3-His coated; antibody 0.11 nM.

The values below come from US20260116991A1.

B1: hAb005LH1L1 (antibody, human IgG1, V domains shown)
VH: EVQLVQSGAEVKKPGASVKVSCKASGYTFTDYEMHWVRQAPGQGLEWMGAIDPETGNTAYIQKFKGRVTMTTDKSTSTAYMELRSLRSDDTAVYYCTRFYSYSHWGQGTTVTVSS
VL: DIVMTQTPLSLPVTPGEPASISCRSSQSLVHSNGNTYLHWYLQKPGQSPQLLIYKVSNRFSGVPDRFSGSGSGTDFTLKISRVEAEDVGVYYCSQNTHVPPTFGGGTKVEIK
Molecule B1 came in with an EC50 in experiment [1] of 2.17 nM. The same molecule gave a Max MFI in experiment [1] of 23400 MFI. Besides, the OD450 nm in [2] was 1.22; in experiment [3], 0.103; in experiment [4], 0.594; in experiment [5], 1.1; in [6] it was 0.069; in [7] it was 1.16. The results for the OD450 nm in experiment [8] and in experiment [9] were 1.21 and 0.94, respectively.

B2: hAb005LH2L1a (antibody, human IgG1, V domains shown)
VH: EVQLVQSGAEVKKPGASVKVSCKASGYTFTDYEMHWVRQAPGQGLEWMGAIDPETGNTAYIQKFKGRVTLTTDKSTSTAYMELRSLRSDDTAVYYCTRFYSYSHWGQGTTVTVSS
VL: DIVMTQTPLSLPVTPGEPASISCRSSQSLVHSDGNTYLHWYLQKPGQSPQLLIYKVSNRFSGVPDRFSGSGSGTDFTLKISRVEAEDVGVYYCSQNTHVPPTFGGGTKVEIK
B2 showed an EC50 in [1] of 32.8 nM. The molecule further returned a Max MFI in experiment [1] of 3490 MFI. The OD450 nm was 0.276 in experiment [2]; 0.04 in [3]; 0.041 in [4]; 0.652 in experiment [5]; 0.099 in experiment [6]; 0.056 in [7]. Moreover, the OD450 nm stood at 0.136 in experiment [8] and 0.042 in experiment [9].

B3: hAb005LH1L1a (antibody, human IgG1, V domains shown)
VH: EVQLVQSGAEVKKPGASVKVSCKASGYTFTDYEMHWVRQAPGQGLEWMGAIDPETGNTAYIQKFKGRVTMTTDKSTSTAYMELRSLRSDDTAVYYCTRFYSYSHWGQGTTVTVSS
VL: DIVMTQTPLSLPVTPGEPASISCRSSQSLVHSDGNTYLHWYLQKPGQSPQLLIYKVSNRFSGVPDRFSGSGSGTDFTLKISRVEAEDVGVYYCSQNTHVPPTFGGGTKVEIK
In the case of B3, the EC50 in experiment [1] came to 71.6 nM. This molecule came in with a Max MFI in experiment [1] of 2910 MFI. The OD450 nm in experiment [2] turned out to be 0.195; in [3] it was 0.045; in experiment [4] it was 0.039; in [5], 0.578; in [6] it was 0.06; in [7] it was 0.053. Further, the OD450 nm in experiment [8] is 0.111; in [9], 0.066.

B4: hAb005LH3L1a (antibody, human IgG1, V domains shown)
VH: EVQLVQSGAEVKKPGASVKVSCKASGYTFTDYEMHWVRQAPGQGLEWIGAIDPETGNTAYIQKFKGRATLTTDKSTSTAYMELRSLRSDDTAVYYCTRFYSYSHWGQGTTVTVSS
VL: DIVMTQTPLSLPVTPGEPASISCRSSQSLVHSDGNTYLHWYLQKPGQSPQLLIYKVSNRFSGVPDRFSGSGSGTDFTLKISRVEAEDVGVYYCSQNTHVPPTFGGGTKVEIK
B4 displayed an EC50 in experiment [1] of 112 nM. In addition, in experiment [1], the Max MFI is 2920 MFI. The OD450 nm in [2] was determined as 0.161; in experiment [3], 0.041; in experiment [4] it was 0.039; in experiment [5], 0.527; in [6], 0.04; in [7] it was 0.042. Also, the OD450 nm was 0.098 in [8] and 0.038 in [9].

B5: hAb005LH3L1 (antibody, human IgG1, V domains shown)
VH: EVQLVQSGAEVKKPGASVKVSCKASGYTFTDYEMHWVRQAPGQGLEWIGAIDPETGNTAYIQKFKGRATLTTDKSTSTAYMELRSLRSDDTAVYYCTRFYSYSHWGQGTTVTVSS
VL: DIVMTQTPLSLPVTPGEPASISCRSSQSLVHSNGNTYLHWYLQKPGQSPQLLIYKVSNRFSGVPDRFSGSGSGTDFTLKISRVEAEDVGVYYCSQNTHVPPTFGGGTKVEIK
In turn, B5 gave a concentration giving a half-maximal response (EC50) in experiment [1] of 3.09 nM. For the same molecule, the Max MFI in experiment [1] came out at 22200 MFI. In addition, the OD450 nm in experiment [2] came out at 1.13; in [3], 0.226; in experiment [4] it was 0.609; in experiment [5], 1.24; in [6] it was 0.088; in [7], 1.15. Besides, the OD450 nm stood at 1.27 in experiment [8] and 0.997 in experiment [9].

B6: hAb005LH2L1 (antibody, human IgG1, V domains shown)
VH: EVQLVQSGAEVKKPGASVKVSCKASGYTFTDYEMHWVRQAPGQGLEWMGAIDPETGNTAYIQKFKGRVTLTTDKSTSTAYMELRSLRSDDTAVYYCTRFYSYSHWGQGTTVTVSS
VL: DIVMTQTPLSLPVTPGEPASISCRSSQSLVHSNGNTYLHWYLQKPGQSPQLLIYKVSNRFSGVPDRFSGSGSGTDFTLKISRVEAEDVGVYYCSQNTHVPPTFGGGTKVEIK
As to B6, the concentration for a half-maximal effect (EC50) in experiment [1] turned out to be 2.88 nM. The molecule also came in with a Max MFI in experiment [1] of 23400 MFI. Besides, the OD450 nm in experiment [2] came out at 1.15; in [3], 0.222; in [4] it was 0.649; in experiment [5] it was 1.2; in experiment [6] it was 0.164; in experiment [7] it was 1.28. Besides, the OD450 nm was determined as 1.24 in experiment [8] and 1.13 in experiment [9].

B7: hAb003LH3L1b (antibody, human IgG1, V domains shown)
VH: EVQLVQSGAEVKKPGSSVKVSCKASGYRFTDYEMHWVRQAPGQGLEWMGTIDPETGNTAYTQKFMDRVTLTADKSTSTAYMELSSLRSEDTAVYYCTRGYSFTYWGQGTLVTVSS
VL: DIVMTQTPLSLPVTPGEPASISCRSSQNIVHSNRNTYLQWYLQKPGQSPQLLIFKVSNRFSGVPDRFSGSGSGTDFTLKISRVEAEDVGVYYCFQGSHVPFTFGQGTKLEIK
For B7, the EC50 in [1] was found to be 1.28 nM. The Max MFI in experiment [1] was 31300 MFI. Besides, the OD450 nm in [2] was determined as 2.4; in [3], 0.432; in experiment [4], 1.17; in [5] it was 2.53; in experiment [6] it was 0.165; in [7] it was 2.5. The OD450 nm stood at 2.4 in experiment [8] and 2.1 in [9].

B8: hAb006LH3L1 (antibody, human IgG1, V domains shown)
VH: EVQLVQSGAEVKKPGSSVKVSCKASGYTFTDYEIHWVRQAPGQGLEWMGAIDPKTGNTAYNQKFMGRVTLTADKSTSTAYMELSSLRSEDTAVYYCTRYFSFAYWGQGTLVTVSS
VL: DIVMTQTPLSLPVTPGEPASISCRSSQTFVHSNGNTYLQWYLQKPGQSPQLLIYKVSNRFSGVPDRFSGSGSGTDFTLKISRVEAEDVGVYYCFQGSHVPYTFGQGTKLEIK
Consider B8, for which the EC50 in [1] worked out at 1.7 nM. The molecule also had a Max MFI in experiment [1] of 34600 MFI. Moreover, the OD450 nm in [2] was 2.44; in experiment [3] it was 0.294; in experiment [4], 0.911; in experiment [5] it was 2.52; in [6], 0.116; in [7] it was 2.1. Further, the OD450 nm amounted to 2.36 in [8] and 1.75 in experiment [9].

B9: hAb007LH2L1 (antibody, human IgG1, V domains shown)
VH: EVQLVQSGAEVKKPGSSVKVSCKASGYTFTDYEMHWVRQAPGQGLEWMGTIDPETGNTAYNQKFKGRVTITADKSTSTAYMELSSLRSEDTAVYYCTRPYSLTYWGQGTLVTVSS
VL: DIVMTQTPLSLPVTPGEPASISCRSSQSFVHSNGDTYLQWYLQKPGQSPQLLIYKVSNRFSGVPDRFSGSGSGTDFTLKISRVEAEDVGVYYCFQGSHVPYTFGQGTKLEIK
Molecule B9 showed an EC50 in experiment [1] of 14.8 nM. This molecule also returned a Max MFI in experiment [1] of 37800 MFI. Moreover, the OD450 nm in experiment [2] turned out to be 2.47; in [3] it was 0.253; in experiment [4] it was 0.707; in experiment [5], 2.57; in experiment [6] it was 0.101; in [7] it was 2.31. Further, the OD450 nm turned out to be 2.47 in experiment [8] and 1.74 in experiment [9].

B10: hAb005LH3L1b (antibody, human IgG1, V domains shown)
VH: EVQLVQSGAEVKKPGASVKVSCKASGYTFTDYEMHWVRQAPGQGLEWIGAIDPETGNTAYIQKFKGRATLTTDKSTSTAYMELRSLRSDDTAVYYCTRFYSYSHWGQGTTVTVSS
VL: DIVMTQTPLSLPVTPGEPASISCRSSQSLVHSNRNTYLHWYLQKPGQSPQLLIYKVSNRFSGVPDRFSGSGSGTDFTLKISRVEAEDVGVYYCSQNTHVPPTFGGGTKVEIK
Molecule B10 showed an EC50 in experiment [1] of 2.37 nM. In addition, the Max MFI in [1] was determined as 22100 MFI. In addition, the OD450 nm in experiment [2] was 1.27; in experiment [3] it was 0.237; in experiment [4], 0.663; in experiment [5], 1.18; in experiment [6], 0.088; in experiment [7], 1.27. Moreover, the OD450 nm in experiment [8] is 1.33; in [9] it was 1.11.

B11: hAb006LH1L1 (antibody, human IgG1, V domains shown)
VH: EVQLVQSGAEVKKPGSSVKVSCKASGYTFSDYEIHWVRQAPGQGLEWMGAIDPKTGNTAYNQKFMGRVTITADKSTSTAYMELSSLRSEDTAVYYCTRYFSFAYWGQGTLVTVSS
VL: DIVMTQTPLSLPVTPGEPASISCRSSQTFVHSNGNTYLQWYLQKPGQSPQLLIYKVSNRFSGVPDRFSGSGSGTDFTLKISRVEAEDVGVYYCFQGSHVPYTFGQGTKLEIK
B11 registered a half-maximal effective concentration (EC50) in experiment [1] of 1.53 nM. Besides, the Max MFI in [1] worked out at 33500 MFI. For the same molecule, the OD450 nm in [2] worked out at 2.56; in experiment [3] it was 0.369; in experiment [4], 1.1; in experiment [5] it was 2.48; in experiment [6], 0.121; in experiment [7] it was 2.5. The OD450 nm in experiment [8] amounted to 2.43; in experiment [9], 2.02.
